Measurements taken from patent publication US20240400654A1.
Positions count from the first letter of the chain named. Names may count otherwise. “And” between values parts separate entries of the source, which are not always exact repeats. Equal entries are not always repeated.

B1: KB001 mouse Fab variant VL L55R/S51G (Fab, V domains shown)
VH: EVQLKQSGPGLVAPSQSLSITCTVSGFSLSIYSVHWVRQPPGKGLEWLGMIWGGGSSDYNSALKSRLSISKDNSKSQVFLKMNSLQTDDTAMYYCARNGNFYAMDYWGQGTSVTVSS
VL: QIVLTQSPAIMSASLGERVTMTCTASSSVSSSFLHWYQQKPGSSPQLWIYGTSNRASGVPARFSGSGSGTSYSLTISSMEAEDAATYYCHQYHHSPYIYTFGGGTKLEIK
B2: KB001 mouse Fab VH S61H (Fab, V domains shown)
VH: B1 VH with S61H
VL: B1 VL with G51S, R55L
B3: KB001 mouse Fab VH S61L (Fab, V domains shown)
VH: B1 VH with S61L
VL: B1 VL with G51S, R55L
B4: KB001 mouse Fab VH A62N (Fab, V domains shown)
VH: B1 VH with A62N
VL: B1 VL with G51S, R55L
B5: KB001 mouse Fab VH A62M (Fab, V domains shown)
VH: B1 VH with A62M
VL: B1 VL with G51S, R55L
B6: KB001 mouse Fab VH A62G (Fab, V domains shown)
VH: B1 VH with A62G
VL: B1 VL with G51S, R55L
B7: KB001 mouse Fab VH A62Q (Fab, V domains shown)
VH: B1 VH with A62Q
VL: B1 VL with G51S, R55L
B8: KB001 mouse Fab VH A62H (Fab, V domains shown)
VH: B1 VH with A62H
VL: B1 VL with G51S, R55L
B9: KB001 mouse Fab VH A62V (Fab, V domains shown)
VH: B1 VH with A62V
VL: B1 VL with G51S, R55L
B10: KB001 mouse Fab VH A62D (Fab, V domains shown)
VH: B1 VH with A62D
VL: B1 VL with G51S, R55L
B11: KB001 mouse Fab VH A62L (Fab, V domains shown)
VH: B1 VH with A62L
VL: B1 VL with G51S, R55L
B12: KB001 mouse Fab VH A62F (Fab, V domains shown)
VH: B1 VH with A62F
VL: B1 VL with G51S, R55L
B13: KB001 mouse Fab VH A62I (Fab, V domains shown)
VH: B1 VH with A62I
VL: B1 VL with G51S, R55L
B14: KB001 mouse Fab VH A62R (Fab, V domains shown)
VH: B1 VH with A62R
VL: B1 VL with G51S, R55L
B15: KB001 mouse Fab VH A62E (Fab, V domains shown)
VH: B1 VH with A62E
VL: B1 VL with G51S, R55L
B16: KB001 mouse Fab VH L63V (Fab, V domains shown)
VH: B1 VH with L63V
VL: B1 VL with G51S, R55L
B17: KB001 mouse Fab VH L63Y (Fab, V domains shown)
VH: B1 VH with L63Y
VL: B1 VL with G51S, R55L
B18: KB001 mouse Fab VH L63H (Fab, V domains shown)
VH: B1 VH with L63H
VL: B1 VL with G51S, R55L
B19: KB001 mouse Fab VH L63M (Fab, V domains shown)
VH: B1 VH with L63M
VL: B1 VL with G51S, R55L
B20: KB001 mouse Fab VH L63F (Fab, V domains shown)
VH: B1 VH with L63F
VL: B1 VL with G51S, R55L
B21: KB001 mouse Fab VH K64I (Fab, V domains shown)
VH: B1 VH with K64I
VL: B1 VL with G51S, R55L
B22: KB001 mouse Fab VH K64V (Fab, V domains shown)
VH: B1 VH with K64V
VL: B1 VL with G51S, R55L
B23: KB001 mouse Fab VH K64M (Fab, V domains shown)
VH: B1 VH with K64M
VL: B1 VL with G51S, R55L
B24: KB001 mouse Fab VH K64G (Fab, V domains shown)
VH: B1 VH with K64G
VL: B1 VL with G51S, R55L
B25: KB001 mouse Fab VH K64H (Fab, V domains shown)
VH: B1 VH with K64H
VL: B1 VL with G51S, R55L
B26: KB001 mouse Fab VH K64S (Fab, V domains shown)
VH: B1 VH with K64S
VL: B1 VL with G51S, R55L
B27: KB001 mouse Fab VH K64Y (Fab, V domains shown)
VH: B1 VH with K64Y
VL: B1 VL with G51S, R55L
B28: KB001 mouse Fab VL T100K (Fab, V domains shown)
VH: B1 VH
VL: B1 VL with G51S, R55L, T100K
B29: KB001 mouse Fab VL T100D (Fab, V domains shown)
VH: B1 VH
VL: B1 VL with G51S, R55L, T100D

These binders were tested against HRgpA-6H (Porphyromonas gingivalis) (UniProt P28784) (assay: ELISA on coated HRgpA-6H, OD relative to parental Fab).
Chain of UniProt P28784 (P28784 228-860 limits assumed): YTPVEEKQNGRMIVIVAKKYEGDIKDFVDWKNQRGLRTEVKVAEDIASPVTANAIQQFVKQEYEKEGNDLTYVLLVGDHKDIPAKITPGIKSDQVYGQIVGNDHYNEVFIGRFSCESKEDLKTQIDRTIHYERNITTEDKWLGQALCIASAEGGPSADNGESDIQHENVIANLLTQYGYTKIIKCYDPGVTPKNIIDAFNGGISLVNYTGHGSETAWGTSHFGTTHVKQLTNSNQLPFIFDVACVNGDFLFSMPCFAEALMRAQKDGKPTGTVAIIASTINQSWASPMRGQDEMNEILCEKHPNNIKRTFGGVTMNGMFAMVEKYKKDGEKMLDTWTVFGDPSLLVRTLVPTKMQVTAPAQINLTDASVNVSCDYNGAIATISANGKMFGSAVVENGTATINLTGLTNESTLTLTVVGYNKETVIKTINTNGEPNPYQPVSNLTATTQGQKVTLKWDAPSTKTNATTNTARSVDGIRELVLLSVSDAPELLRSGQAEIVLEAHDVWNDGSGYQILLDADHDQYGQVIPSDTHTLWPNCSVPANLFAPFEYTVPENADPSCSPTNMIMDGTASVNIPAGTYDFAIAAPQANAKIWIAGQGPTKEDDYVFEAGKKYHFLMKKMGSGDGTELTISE

Binder	Ratio OD(Variant)/OD(WT) [fold]
B1	0.955

What follows are binders tested against HRgpA-6H (Porphyromonas gingivalis) (UniProt P28784) (assay: ELISA, coated HRgpA-6H).

Binder	OD450 nm	Ratio OD(Variant)/OD(WT)
B2	0.469	0.95
B3	0.448	0.908
B4	0.721 and 0.799	0.825 and 0.914
B5	0.77 and 0.735	0.881 and 0.841
B6	0.813 and 0.785	0.93 and 0.898
B7	0.737 and 0.869	0.843 and 0.994
B8	0.819 and 0.834 and 0.844	0.937 and 0.954 and 0.966
B9	0.742 and 0.757	0.849 and 0.866
B10	0.853 and 0.851	0.976 and 0.974
B11	0.812	0.929
B12	0.843 and 0.733	0.965 and 0.839
B13	0.702 and 0.808	0.803 and 0.924
B14	0.733 and 0.847 and 0.809	0.839 and 0.969 and 0.926
B15	0.854	0.977
B16	0.784 and 0.77 and 0.778	0.897 and 0.881 and 0.89
B17	0.836 and 0.846 and 0.801	0.957 and 0.968 and 0.916
B18	0.818 and 0.843 and 0.822	0.936 and 0.965 and 0.941
B19	0.8	0.915
B20	0.743	0.85
B21	0.743 and 0.756 and 0.715	0.898 and 0.914 and 0.865
B22	0.715 and 0.714	0.865 and 0.863
B23	0.799 and 0.757 and 0.78	0.966 and 0.915 and 0.943
B24	0.806	0.975
B25	0.752	0.909
B26	0.808	0.977
B27	0.763	0.923
B28	0.625	1.19
B29	0.645	1.23

These binders were tested against HRgpA-6H (Porphyromonas gingivalis) (UniProt P28784) (assay: ELISA, FASEBA Fab supernatant on coated HRgpA-6H).

Binder	OD450 nm
B1	0.748
